This is an account of results in patent publication US20120329997A1 (Hoffmann-La Roche, published 2012).

Positions count from the first letter of the chain named. Like-named read-outs stand apart in the source and are kept apart here.

In assay [1] the target is huCSF-1R-huFc chimera (soluble extracellular domain) (human) (UniProt P07333). Briefly: competition ELISA, inhibition of CSF-1 binding to immobilized huCSF-1R-huFc. (In general: ELISA stands for enzyme-linked immunosorbent assay.)
The target of assay [2] is CSF-1R ECD (R&D-Systems 329-MR or in-house subcloned pCMV-presS-HisAvitag-hCSF-1R-ECD) (human) (UniProt P07333). Briefly: SPR (BIACORE A100), 35 C, antibody captured, CSF-1R ECD in solution. A general note: In SPR one partner is held on a chip, and binding of the other changes the refractive index at the surface.
The target is the same in assay [3]. Briefly: SPR cross-competition, 25 C; second antibody on CSF-1R held by captured Antibody 1; competitor <CSF-1R>7H5.2G10 (Antibody 1).
Assay [4] has as its target mutant CSF-1R L301S Y969F (human, UniProt P07333 20-972). Briefly: cell-based or functional assay.
Assay [5] deals with CSF-1R ECD (R&D-Systems 329-MR or in-house subcloned pCMV-presS-HisAvitag-hCSF-1R-ECD) (human) (UniProt P07333). Briefly: SPR cross-competition, 25 C; second antibody on CSF-1R held by captured Antibody 1; competitor <CSF-1R>10A4.1G11 (Antibody 1).
The target is the same in assay [6]. Briefly: SPR cross-competition, 25 C; second antibody on CSF-1R held by captured Antibody 1; competitor SC-02, clone 2-4A5 (Antibody 1).
For assay [7], the target named is T1, full-length wildtype CSF-1R (wt CSF-1R) (human, UniProt P07333 20-972). Briefly: cell-based or functional assay.
For assay [8], the target named is T1, full-length wildtype CSF-1R (wt CSF-1R). Briefly: cell-based or functional assay. This is another data set of the same source.
Assay [9] shares this target. Briefly: cell-based or functional assay. The source holds these as a separate data set.
Assay [10] has the same target. Briefly: cell-based or functional assay. This is another data set of the same source.
The target of assay [11] is T2, CSF-1R ECD (R&D-Systems 329-MR or in-house subcloned pCMV-presS-HisAvitag-hCSF-1R-ECD) (human, UniProt P07333 20-517).
T2 construct: also called CSF-1R (R&D-Systems Cat. No. 329-MR)
Briefly: SPR (BIACORE A100), 35 C, antibody captured, CSF-1R ECD in solution. On the procedure:
For affinity measurements 36 μg/ml anti mouse Fcγ antibodies (from goat, Jackson Immuno Reasearch JIR115-005-071) have been coupled to the chip surface for capturing the antibodies against CSF-1R. CSF-1R ECD (R&D-Systems 329-MR or in-house subcloned pCMV-presS-H isAvitag-hCSF-1R-ECD were added in various concentrations in solution. Association was measured by an CSF-1R-injection of 1.5 minutes at 35° C.; dissociation was measured by washing the chip surface with buffer for 10 minutes at 35° C. Anti CSF-IR SC-02, clone 2-4A5 (Santa Cruz Biotechnology, US; see also Sherr, C. J., et al., Cell 41 (1985) 665-676), which inhibits the ligand-receptor interaction, was used as reference control.

Assay [12] addresses T3, huCSF-1R-huFc chimera (soluble extracellular domain) (human, UniProt P07333 20-517).
T3 construct: also called huCSF-1R ECDhuFc chimera; not shown: human Fc
Briefly: competition ELISA, inhibition of CSF-1 binding to immobilized huCSF-1R-huFc. The method, then: At the beginning, plates were coated with […] goat F(ab′)₂ biotinylated anti Fcγ (Jackson ImmunoResearch., Cat. No. 109-006-170) for 1 hour (h).
Thereafter the wells were blocked with PBS supplemented with 0.2% Tween®-20 and 2% BSA (Roche Diagnostics GmbH, DE) for 0.5 h. 75 ng/ml of huCSF-1R-huFc chimera (soluble extracellular domain) was immobilized to plate for 1 h. Then dilutions of purified antibodies in PBS/0.05% Tween20/0.5% BSA were incubated for 1 h. After adding a mixture of 3 ng/ml CSF-1 (Biomol, DE, Cat. No. 60530), 50 ng/ml biotinylated anti CSF-1 clone BAF216 (R&D Systems, UK) and 1:5000 diluted streptavidin HRP (Roche Diagnostics GmbH, DE, Cat. No. 11089153001) for 1 h the plates were washed 6 times with PBST. Anti CSF-IR SC-02, clone 2-4A5 (Santa Cruz Biotechnology, US), which inhibits the ligand-receptor interaction, was used as positive control. Plates were developed with freshly prepared BM Blue® POD substrate solution (BM Blue®: 3,3″-5,5″-Tetramethylbenzidine, Roche Diagnostics GmbH, DE, Cat. No. 11484281001) for 30 minutes at RT. Absorbance was measured at 370 nm. […]

T3 sequence (P07333 20-517, change not shown): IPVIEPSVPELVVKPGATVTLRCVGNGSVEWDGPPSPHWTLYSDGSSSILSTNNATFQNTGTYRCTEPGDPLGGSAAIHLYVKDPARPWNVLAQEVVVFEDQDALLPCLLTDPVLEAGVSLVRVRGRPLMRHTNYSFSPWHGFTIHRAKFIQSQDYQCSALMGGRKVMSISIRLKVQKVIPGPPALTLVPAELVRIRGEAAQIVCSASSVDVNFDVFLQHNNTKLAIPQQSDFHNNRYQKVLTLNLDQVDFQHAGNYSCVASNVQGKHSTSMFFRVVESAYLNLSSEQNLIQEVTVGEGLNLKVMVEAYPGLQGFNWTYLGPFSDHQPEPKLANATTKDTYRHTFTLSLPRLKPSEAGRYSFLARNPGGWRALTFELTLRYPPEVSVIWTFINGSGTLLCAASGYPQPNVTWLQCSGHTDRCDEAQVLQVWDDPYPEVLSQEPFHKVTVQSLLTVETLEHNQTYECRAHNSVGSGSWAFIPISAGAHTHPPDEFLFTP
Chain of CSF-1R ECD (R&D-Systems 329-MR or in-house subcloned pCMV-presS-HisAvitag-hCSF-1R-ECD) (human) (P07333 20-517 limits assumed): as the sequence (P07333 20-517, change not shown) above
T2 sequence (P07333 20-517 limits assumed): as the sequence (P07333 20-517, change not shown) above
T1 sequence (P07333 20-972 limits assumed): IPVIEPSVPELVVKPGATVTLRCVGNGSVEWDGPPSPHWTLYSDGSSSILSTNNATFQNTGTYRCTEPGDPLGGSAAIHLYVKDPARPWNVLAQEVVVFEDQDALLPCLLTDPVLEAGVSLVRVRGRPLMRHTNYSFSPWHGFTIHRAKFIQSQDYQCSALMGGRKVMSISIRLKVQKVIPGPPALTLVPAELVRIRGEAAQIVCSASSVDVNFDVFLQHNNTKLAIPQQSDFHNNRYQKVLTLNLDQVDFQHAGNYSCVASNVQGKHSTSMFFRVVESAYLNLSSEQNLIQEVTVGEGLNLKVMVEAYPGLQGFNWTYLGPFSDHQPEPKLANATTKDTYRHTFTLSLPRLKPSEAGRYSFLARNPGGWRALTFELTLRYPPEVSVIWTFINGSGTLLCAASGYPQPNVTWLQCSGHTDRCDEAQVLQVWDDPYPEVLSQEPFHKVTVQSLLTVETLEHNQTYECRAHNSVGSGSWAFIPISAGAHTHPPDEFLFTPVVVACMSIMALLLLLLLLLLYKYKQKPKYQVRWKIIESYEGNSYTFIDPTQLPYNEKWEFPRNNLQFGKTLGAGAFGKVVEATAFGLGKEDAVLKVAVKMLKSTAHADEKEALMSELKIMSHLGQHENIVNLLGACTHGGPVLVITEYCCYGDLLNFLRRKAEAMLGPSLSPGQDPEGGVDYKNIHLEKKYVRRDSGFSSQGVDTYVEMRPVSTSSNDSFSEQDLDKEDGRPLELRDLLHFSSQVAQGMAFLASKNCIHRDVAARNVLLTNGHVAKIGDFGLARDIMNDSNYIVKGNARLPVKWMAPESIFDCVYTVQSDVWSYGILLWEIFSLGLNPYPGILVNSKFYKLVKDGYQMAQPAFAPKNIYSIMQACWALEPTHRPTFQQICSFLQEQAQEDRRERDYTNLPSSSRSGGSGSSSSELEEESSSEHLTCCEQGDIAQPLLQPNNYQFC
Chain of mutant CSF-1R L301S Y969F (P07333 20-972 L301S/Y969F limits assumed): as the sequence (P07333 20-972 limits assumed) above, with L282S, Y950F counted along it
Chain of huCSF-1R-huFc chimera (soluble extracellular domain) (human) (P07333 20-517, change not shown): as the sequence (P07333 20-517, change not shown) above

For “Anti CSF-1R SC-02, clone 2-4A5 (Santa Cruz Biotechnology, US) (antibody)”, the IC50 in assay [1] came to 0.0309 µg/mL. Moreover, in assay [2], the Kd was 2.73 nM, the dissociation rate constant (koff) came out at 0.00139 s⁻¹, the kon was determined as 509000 M⁻¹ s⁻¹ and the t1/2 came out at 8.31 min. Besides, the percentage (%) of expected binding response in assay [3] is 42%. For the same molecule, the % survival, NIH3T Cells expressing Mutant CSF-1R, 10 ug/ml antibody in assay [4] came out at 66%. For the same molecule, in [5], the percentage (%) of expected binding response was 24%. In addition, the percentage (%) of expected binding response in assay [6] is -2%. In [7], this molecule showed a % inhibition 10 ug/ml antibody concentration, BeWo tumor cells in 3D culture of 40%; a % survival, NIH3T Cells expressing wtCSF-1R, 10 ug/ml antibody of 62%; an IC50 CSF-1R Phosphorylation of 0.412 µg/mL; an IC50 [nM], inhibition of the survival of monocytes of 2.4 nM.

B1: <CSF-1R>10A4.1G11 (antibody, V domains shown)
VH: EVQLQQFGTELVKPGASVKISCKASGYTFTDYNMDWVKQSHGKSLEWIGDINPNYDSTTYNQKFKGKATLTVDKSSSTAYMELRSLTSEDTAVYYCARWRFFAMDYWGQGTSVTVSS
VL: DIQMTQSSSSFSVSLGDRVTITCKASEDIYNRLAWYQQKPGNAPRLLISGASSLETGVPSRFSGSGSGKDYTLSITSLQTEDVATYYCQQYWSIPWTFGGGTKLEIKR
notes: Mouse monoclonal antibody from a hybridoma
B1: in assay [8], the “% survival, NIH3T Cells expressing wtCSF-1R, 10 ug/ml antibody” value is 3%. The “% survival, NIH3T Cells expressing Mutant CSF-1R, 10 ug/ml antibody” value in assay [4] was 144%. Moreover, the “IC50 [nM], inhibition of the survival of monocytes” value in assay [9] came to 0.4 nM. Also, in assay [10], the “IC50 CSF-1R Phosphorylation” value was found to be 0.0154 µg/mL. In assay [11], binding was put at a Kd of 1.77 nM, the koff is 0.0013 s⁻¹, the kon came out at 740000 M⁻¹ s⁻¹ and the t1/2 is 8.89 min. The same molecule showed an IC50 in assay [12] of 0.0634 µg/mL.

B2: <CSF-1R>7H5.2G10 (antibody, V domains shown)
VH: EVQLQQSGPELVKPGASMKISCKASGYSFTDYTVNWVKQSHGENLDWIGLIIPYNGGTSYNHNFRGKATLTVDKSSSTAYMELLSLTSEDSAVYYCTRGGGDFTTGYTMDYWGHGTSVTVSS
VL: DIQMTQSSSYLSVSLGGTVTINCKASDHIHDWLAWYQQQPGNAPRLLISGATSLETGVPSRFSGGGSGKDYSLIITSLQTEDFATYYCQQYWSIPWTFGGGTKLEIKR
notes: Mouse monoclonal antibody from a hybridoma (NMRI mice); also called deposited antibody DSM ACC2922
Turning to B2, the “% survival, NIH3T Cells expressing wtCSF-1R, 10 ug/ml antibody” value in [8] came out at 2%. Besides, the “% survival, NIH3T Cells expressing Mutant CSF-1R, 10 ug/ml antibody” value in [4] amounted to 112%. Further, the “IC50 [nM], inhibition of the survival of monocytes” value in assay [9] is 1 nM. In assay [10], the “IC50 CSF-1R Phosphorylation” value was found to be 0.049 µg/mL. Moreover, in [11], binding was put at a Kd of 0.54 nM, the koff is 0.00038 s⁻¹, the kon turned out to be 700000 M⁻¹ s⁻¹ and the t1/2 turned out to be 30.4 min. This molecule returned an IC50 in [12] of 0.0269 µg/mL.

B3: <CSF-1R>6G4.1C8 (antibody, V domains shown)
VH: B2 VH with E89D, H114Q
VL: B2 VL with D31N, F83V
notes: as for B1
Turning to B3, in assay [8], the “% survival, NIH3T Cells expressing wtCSF-1R, 10 ug/ml antibody” value is 3%. For the same molecule, the “% survival, NIH3T Cells expressing Mutant CSF-1R, 10 ug/ml antibody” value in assay [4] is 91%. For the same molecule, in [10], the “IC50 CSF-1R Phosphorylation” value was determined as 0.0826 µg/mL. For the same molecule, in assay [11], the equilibrium dissociation constant (Kd) turned out to be 0.52 nM, the koff is 0.00029 s⁻¹, the kon is 570000 M⁻¹ s⁻¹ and the t1/2 came out at 39.4 min. The molecule also registered an IC50 in [12] of 0.0212 µg/mL.

The term IC50 denotes the point on the concentration scale where inhibition reaches its midpoint. A lower IC50 goes with greater potency in that assay. In general, Kd refers to the equilibrium constant for the complex coming apart. A low value points to higher affinity. As a reminder, the koff is a measure of how fast the partners let go of each other. Read a high koff as a short-lived complex. The term kon denotes the rate constant with which the complex forms. Read a high kon as fast association.
